Assay [1] addresses human CD40-His protein (human) (UniProt P25942). Nature of the assay: ELISA on coated human CD40-His (1.0 ug/ml), anti-human IgG-HRP, OD450.
Assay [2] deals with human CD40 on cells (human) (UniProt P25942). Nature of the assay: FACS on Jurkat cells overexpressing human CD40, PE anti-human IgG, MFI.
For assay [3] the target is unchanged. Described as above. This is another data set of the same source.
For assay [4] the target is unchanged. The assay is described as follows: FACS on human B cells (CD19+ gate), PE anti-human IgG Fc, MFI.

Sequence of selicrelumab (antibody) (VH): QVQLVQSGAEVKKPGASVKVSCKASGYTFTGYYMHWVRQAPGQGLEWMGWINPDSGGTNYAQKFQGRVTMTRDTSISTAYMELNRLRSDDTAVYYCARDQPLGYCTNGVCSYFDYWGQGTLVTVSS
Sequence of selicrelumab (antibody) (VL): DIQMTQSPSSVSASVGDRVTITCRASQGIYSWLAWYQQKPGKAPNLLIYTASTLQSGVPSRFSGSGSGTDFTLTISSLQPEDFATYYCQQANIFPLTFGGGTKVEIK
Sequence of human CD40 on cells (human) (P25942 21-277): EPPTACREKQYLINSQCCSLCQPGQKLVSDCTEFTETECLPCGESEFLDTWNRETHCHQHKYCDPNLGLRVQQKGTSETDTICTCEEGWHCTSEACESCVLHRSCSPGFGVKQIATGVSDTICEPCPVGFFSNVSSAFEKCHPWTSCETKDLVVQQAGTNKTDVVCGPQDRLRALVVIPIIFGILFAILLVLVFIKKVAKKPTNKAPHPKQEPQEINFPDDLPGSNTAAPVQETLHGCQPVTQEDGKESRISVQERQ
Sequence of human CD40-His protein (human) (P25942 21-193 limits assumed): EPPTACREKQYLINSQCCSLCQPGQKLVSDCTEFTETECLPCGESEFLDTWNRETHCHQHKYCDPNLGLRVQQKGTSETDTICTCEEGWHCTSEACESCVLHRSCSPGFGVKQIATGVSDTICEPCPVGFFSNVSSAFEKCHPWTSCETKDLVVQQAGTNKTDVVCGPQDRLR

In the case of selicrelumab (antibody), the half-maximal effective concentration (EC50 (read off the curve)) (in general, the concentration needed to bring the measured effect to its halfway point) in assay [1] was determined as 0.7 nM; in assay [2], 1 nM; in assay [3], 0.9 nM; in assay [4], 1 nM.
